Data as given in patent US20210388087A1 (Chugai, published 2021).

Biological target: T1, Human CD3eg linker (human)
T1 construct: Single chain: epsilon and gamma subunits of human CD3 joined by a 29-mer linker, Flag-tag at the C-terminus; also called recombinant human CD3
T1 chain: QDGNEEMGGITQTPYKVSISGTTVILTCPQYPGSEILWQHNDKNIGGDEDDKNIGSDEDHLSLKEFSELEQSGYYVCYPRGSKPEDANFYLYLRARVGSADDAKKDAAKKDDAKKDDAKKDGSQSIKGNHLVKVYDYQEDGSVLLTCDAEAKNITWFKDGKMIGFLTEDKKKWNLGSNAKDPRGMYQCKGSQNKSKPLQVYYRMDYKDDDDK
Experiment: Biacore SPR, vs template H183/L072

| Binder | fold change of affinity [fold] |
| --- | --- |
| H183/L072 VH G26A (antibody, name in Kabat numbering, V domains shown) VH: QVQLVESGGGLVQPGRSLRLSCAASAFTFSNAWMHWVRQAPGKGLEWVAQIKDKGNAYAAYYAPSVKGRFTISRDDSKNSIYLQMNSLKTEDTAVYYCHYVHYASASTVLPAFGVDAWGQGTTVTVSS VL: DIVMTQSPLSLPVTPGEPASISCQASQELVHMNRNTYLHWYQQKPGQAPRLLIYKVSNRFPGVPDRFSGSGSGTDFTLKISRVEAEDVGVYYCAQGTSVPFTFGQGTKLEIK | 0.5 |
| H183/L072 VH A32V (antibody, name in Kabat numbering, V domains shown) VH: QVQLVESGGGLVQPGRSLRLSCAASGFTFSNVWMHWVRQAPGKGLEWVAQIKDKGNAYAAYYAPSVKGRFTISRDDSKNSIYLQMNSLKTEDTAVYYCHYVHYASASTVLPAFGVDAWGQGTTVTVSS VL: DIVMTQSPLSLPVTPGEPASISCQASQELVHMNRNTYLHWYQQKPGQAPRLLIYKVSNRFPGVPDRFSGSGSGTDFTLKISRVEAEDVGVYYCAQGTSVPFTFGQGTKLEIK | 0.9 |
| H183/L072 VH A32P (antibody, name in Kabat numbering, V domains shown) VH: QVQLVESGGGLVQPGRSLRLSCAASGFTFSNPWMHWVRQAPGKGLEWVAQIKDKGNAYAAYYAPSVKGRFTISRDDSKNSIYLQMNSLKTEDTAVYYCHYVHYASASTVLPAFGVDAWGQGTTVTVSS VL: DIVMTQSPLSLPVTPGEPASISCQASQELVHMNRNTYLHWYQQKPGQAPRLLIYKVSNRFPGVPDRFSGSGSGTDFTLKISRVEAEDVGVYYCAQGTSVPFTFGQGTKLEIK | 0 |
| H183/L072 VH A32H (antibody, name in Kabat numbering, V domains shown) VH: QVQLVESGGGLVQPGRSLRLSCAASGFTFSNHWMHWVRQAPGKGLEWVAQIKDKGNAYAAYYAPSVKGRFTISRDDSKNSIYLQMNSLKTEDTAVYYCHYVHYASASTVLPAFGVDAWGQGTTVTVSS VL: DIVMTQSPLSLPVTPGEPASISCQASQELVHMNRNTYLHWYQQKPGQAPRLLIYKVSNRFPGVPDRFSGSGSGTDFTLKISRVEAEDVGVYYCAQGTSVPFTFGQGTKLEIK | 0.5 |
| H183/L072 VH A32M (antibody, name in Kabat numbering, V domains shown) VH: QVQLVESGGGLVQPGRSLRLSCAASGFTFSNMWMHWVRQAPGKGLEWVAQIKDKGNAYAAYYAPSVKGRFTISRDDSKNSIYLQMNSLKTEDTAVYYCHYVHYASASTVLPAFGVDAWGQGTTVTVSS VL: DIVMTQSPLSLPVTPGEPASISCQASQELVHMNRNTYLHWYQQKPGQAPRLLIYKVSNRFPGVPDRFSGSGSGTDFTLKISRVEAEDVGVYYCAQGTSVPFTFGQGTKLEIK | 0 |
| H183/L072 VH A32K (antibody, name in Kabat numbering, V domains shown) VH: QVQLVESGGGLVQPGRSLRLSCAASGFTFSNKWMHWVRQAPGKGLEWVAQIKDKGNAYAAYYAPSVKGRFTISRDDSKNSIYLQMNSLKTEDTAVYYCHYVHYASASTVLPAFGVDAWGQGTTVTVSS VL: DIVMTQSPLSLPVTPGEPASISCQASQELVHMNRNTYLHWYQQKPGQAPRLLIYKVSNRFPGVPDRFSGSGSGTDFTLKISRVEAEDVGVYYCAQGTSVPFTFGQGTKLEIK | 0.5 |
| H183/L072 VH A32E (antibody, name in Kabat numbering, V domains shown) VH: QVQLVESGGGLVQPGRSLRLSCAASGFTFSNEWMHWVRQAPGKGLEWVAQIKDKGNAYAAYYAPSVKGRFTISRDDSKNSIYLQMNSLKTEDTAVYYCHYVHYASASTVLPAFGVDAWGQGTTVTVSS VL: DIVMTQSPLSLPVTPGEPASISCQASQELVHMNRNTYLHWYQQKPGQAPRLLIYKVSNRFPGVPDRFSGSGSGTDFTLKISRVEAEDVGVYYCAQGTSVPFTFGQGTKLEIK | 0.1 |
| H183/L072 VH A32D (antibody, name in Kabat numbering, V domains shown) VH: QVQLVESGGGLVQPGRSLRLSCAASGFTFSNDWMHWVRQAPGKGLEWVAQIKDKGNAYAAYYAPSVKGRFTISRDDSKNSIYLQMNSLKTEDTAVYYCHYVHYASASTVLPAFGVDAWGQGTTVTVSS VL: DIVMTQSPLSLPVTPGEPASISCQASQELVHMNRNTYLHWYQQKPGQAPRLLIYKVSNRFPGVPDRFSGSGSGTDFTLKISRVEAEDVGVYYCAQGTSVPFTFGQGTKLEIK | 0 |
| H183/L072 VH A32Q (antibody, name in Kabat numbering, V domains shown) VH: QVQLVESGGGLVQPGRSLRLSCAASGFTFSNQWMHWVRQAPGKGLEWVAQIKDKGNAYAAYYAPSVKGRFTISRDDSKNSIYLQMNSLKTEDTAVYYCHYVHYASASTVLPAFGVDAWGQGTTVTVSS VL: DIVMTQSPLSLPVTPGEPASISCQASQELVHMNRNTYLHWYQQKPGQAPRLLIYKVSNRFPGVPDRFSGSGSGTDFTLKISRVEAEDVGVYYCAQGTSVPFTFGQGTKLEIK | 0.4 |
| H183/L072 VH A32S (antibody, name in Kabat numbering, V domains shown) VH: QVQLVESGGGLVQPGRSLRLSCAASGFTFSNSWMHWVRQAPGKGLEWVAQIKDKGNAYAAYYAPSVKGRFTISRDDSKNSIYLQMNSLKTEDTAVYYCHYVHYASASTVLPAFGVDAWGQGTTVTVSS VL: DIVMTQSPLSLPVTPGEPASISCQASQELVHMNRNTYLHWYQQKPGQAPRLLIYKVSNRFPGVPDRFSGSGSGTDFTLKISRVEAEDVGVYYCAQGTSVPFTFGQGTKLEIK | 0.4 |
| H183/L072 VH A32R (antibody, name in Kabat numbering, V domains shown) VH: QVQLVESGGGLVQPGRSLRLSCAASGFTFSNRWMHWVRQAPGKGLEWVAQIKDKGNAYAAYYAPSVKGRFTISRDDSKNSIYLQMNSLKTEDTAVYYCHYVHYASASTVLPAFGVDAWGQGTTVTVSS VL: DIVMTQSPLSLPVTPGEPASISCQASQELVHMNRNTYLHWYQQKPGQAPRLLIYKVSNRFPGVPDRFSGSGSGTDFTLKISRVEAEDVGVYYCAQGTSVPFTFGQGTKLEIK | 0.6 |
| H183/L072 VH A32Y (antibody, name in Kabat numbering, V domains shown) VH: QVQLVESGGGLVQPGRSLRLSCAASGFTFSNYWMHWVRQAPGKGLEWVAQIKDKGNAYAAYYAPSVKGRFTISRDDSKNSIYLQMNSLKTEDTAVYYCHYVHYASASTVLPAFGVDAWGQGTTVTVSS VL: DIVMTQSPLSLPVTPGEPASISCQASQELVHMNRNTYLHWYQQKPGQAPRLLIYKVSNRFPGVPDRFSGSGSGTDFTLKISRVEAEDVGVYYCAQGTSVPFTFGQGTKLEIK | 0 |
| H183/L072 VH A32N (antibody, name in Kabat numbering, V domains shown) VH: QVQLVESGGGLVQPGRSLRLSCAASGFTFSNNWMHWVRQAPGKGLEWVAQIKDKGNAYAAYYAPSVKGRFTISRDDSKNSIYLQMNSLKTEDTAVYYCHYVHYASASTVLPAFGVDAWGQGTTVTVSS VL: DIVMTQSPLSLPVTPGEPASISCQASQELVHMNRNTYLHWYQQKPGQAPRLLIYKVSNRFPGVPDRFSGSGSGTDFTLKISRVEAEDVGVYYCAQGTSVPFTFGQGTKLEIK | 0.5 |
| H183/L072 VH A32W (antibody, name in Kabat numbering, V domains shown) VH: QVQLVESGGGLVQPGRSLRLSCAASGFTFSNWWMHWVRQAPGKGLEWVAQIKDKGNAYAAYYAPSVKGRFTISRDDSKNSIYLQMNSLKTEDTAVYYCHYVHYASASTVLPAFGVDAWGQGTTVTVSS VL: DIVMTQSPLSLPVTPGEPASISCQASQELVHMNRNTYLHWYQQKPGQAPRLLIYKVSNRFPGVPDRFSGSGSGTDFTLKISRVEAEDVGVYYCAQGTSVPFTFGQGTKLEIK | 0.1 |
| H183/L072 VH A32F (antibody, name in Kabat numbering, V domains shown) VH: QVQLVESGGGLVQPGRSLRLSCAASGFTFSNFWMHWVRQAPGKGLEWVAQIKDKGNAYAAYYAPSVKGRFTISRDDSKNSIYLQMNSLKTEDTAVYYCHYVHYASASTVLPAFGVDAWGQGTTVTVSS VL: DIVMTQSPLSLPVTPGEPASISCQASQELVHMNRNTYLHWYQQKPGQAPRLLIYKVSNRFPGVPDRFSGSGSGTDFTLKISRVEAEDVGVYYCAQGTSVPFTFGQGTKLEIK | 0 |
| H183/L072 VH A32T (antibody, name in Kabat numbering, V domains shown) VH: QVQLVESGGGLVQPGRSLRLSCAASGFTFSNTWMHWVRQAPGKGLEWVAQIKDKGNAYAAYYAPSVKGRFTISRDDSKNSIYLQMNSLKTEDTAVYYCHYVHYASASTVLPAFGVDAWGQGTTVTVSS VL: DIVMTQSPLSLPVTPGEPASISCQASQELVHMNRNTYLHWYQQKPGQAPRLLIYKVSNRFPGVPDRFSGSGSGTDFTLKISRVEAEDVGVYYCAQGTSVPFTFGQGTKLEIK | 0 |
| H183/L072 VH A32L (antibody, name in Kabat numbering, V domains shown) VH: QVQLVESGGGLVQPGRSLRLSCAASGFTFSNLWMHWVRQAPGKGLEWVAQIKDKGNAYAAYYAPSVKGRFTISRDDSKNSIYLQMNSLKTEDTAVYYCHYVHYASASTVLPAFGVDAWGQGTTVTVSS VL: DIVMTQSPLSLPVTPGEPASISCQASQELVHMNRNTYLHWYQQKPGQAPRLLIYKVSNRFPGVPDRFSGSGSGTDFTLKISRVEAEDVGVYYCAQGTSVPFTFGQGTKLEIK | 0 |
| H183/L072 VH A32I (antibody, name in Kabat numbering, V domains shown) VH: QVQLVESGGGLVQPGRSLRLSCAASGFTFSNIWMHWVRQAPGKGLEWVAQIKDKGNAYAAYYAPSVKGRFTISRDDSKNSIYLQMNSLKTEDTAVYYCHYVHYASASTVLPAFGVDAWGQGTTVTVSS VL: DIVMTQSPLSLPVTPGEPASISCQASQELVHMNRNTYLHWYQQKPGQAPRLLIYKVSNRFPGVPDRFSGSGSGTDFTLKISRVEAEDVGVYYCAQGTSVPFTFGQGTKLEIK | 0.1 |
| H183/L072 VH A32G (antibody, name in Kabat numbering, V domains shown) VH: QVQLVESGGGLVQPGRSLRLSCAASGFTFSNGWMHWVRQAPGKGLEWVAQIKDKGNAYAAYYAPSVKGRFTISRDDSKNSIYLQMNSLKTEDTAVYYCHYVHYASASTVLPAFGVDAWGQGTTVTVSS VL: DIVMTQSPLSLPVTPGEPASISCQASQELVHMNRNTYLHWYQQKPGQAPRLLIYKVSNRFPGVPDRFSGSGSGTDFTLKISRVEAEDVGVYYCAQGTSVPFTFGQGTKLEIK | 0.3 |
